# Assay results as given in the RNAGym collection of RNA variant scans (doi:10.1021/acssynbio.7b00057).
# B1: Pistol ribozyme (parent)
# chain: GGGUCGUUGUUCCAUAAUCGCGUGGAUAUGGCACGCAAGUUUCUACCGGGCACCGUAAAUGUCCGACUGGAGCCGUUCGGGCGGCUAUAAACAGACCUCAGGCCCGAAGCGUGGCGGCACCUGCCGCCGGUGGUAAAAAAGAUCGGAAGAGCACACGUCU
# Variants of: B1
# Experiment: aptazyme ON/OFF ratio, guanine; higher = stronger switching; co-transcriptional cleavage with and without guanine
row,Variant,aptazyme ON/OFF ratio
1,U7C U8G G9C U10A U11C C12A,1.19
2,U7C U8G G9U C12U C13A,1.31
3,U7C U8G G9C C12G C13G,1.12
4,U7C U8G G9C C12G C13U,1.18
5,U7C U8G G9C C12G C13A,1.27
6,U7C U8G G9U C12G C13G,1.25
7,U7C U8G G9U C12G C13U,1.28
8,U7C U8G G9U C12G C13A,1.17
9,U7C U8G G9C U10C U11G C12U,1.17
10,U7C U8G G9C U10C U11G C12A,1.03
11,U7C U8G G9C U10C U11G C12G,1.09
12,U7C U8G G9C U10C U11C C12G C13U,1.07
13,U7C U8G G9C U10C U11C C12G C13G,1.08
14,U7C U8G G9C U10C U11C C12G C13A,1.19
15,U7C U8G G9C U10A U11G C12U,1.31
16,U7C U8G G9C U10A U11G C12G,1.26
17,U7C U8G G9C U10A U11G C12A,1.05
18,U7C U8G G9C,1.08
19,U7C U8G G9U,3.71
20,U7C U8G G9C U11G C12A C13A,1.14
21,U7C U8G G9C U11G C12A C13U,1.14

row,Variant,aptazyme ON/OFF ratio
1,U7C U8G G9C U11G C12A C13G,1.18
2,U7C U8G G9C U10C U11A C12A C13A,1.08
3,U7C U8G G9C U10C U11A C12A C13U,1.09
4,U7C U8G G9C U10C U11A C12A C13G,1.06
5,U7C U8G G9C U11C C13G,1.05
6,U7C U8G G9C U11C C13U,1.38
7,U7C U8G G9C U11C C13A,1.47
8,U7C U8G G9A U10G U11G,1.42
9,U7C U8G G9U C12A C13G,1.27
10,U7C U8G G9U C12A C13U,1.37
11,U7C U8G G9U C12A C13A,1.42
12,U7C U8G G9A U11A C12U,1.26
13,U7C U8G G9A U11A C12G,1.11
14,U7C U8G G9A U11A C12A,1.29
15,U7C U8G G9C U10G U11C,1.04
16,U7C U8G G9C U10G U11G,1.23
17,U7C U8G G9C U10G U11A,1.07
18,U7C U8G G9C U10C U11G C12A C13G,1.06
19,U7C U8G G9C U10C U11G C12A C13A,1.12
20,U7C U8G G9C U10C U11G C12A C13U,1.05
21,U7C U8G G9C U10A U11A C12G C13G,1.18

row,Variant,aptazyme ON/OFF ratio
1,U7C U8G G9C U10A U11A C12G C13A,1.12
2,U7C U8G G9C U10A U11A C12G C13U,1.17
3,U7C U8G G9A U11C C12U C13A,1.09
4,U7C U8G G9A U11C C12U C13U,1.09
5,U7C U8G G9A U11C C12U C13G,1.15
6,U7C U8G G9A U10G U11G C12A,1.33
7,U7C U8G G9A U10G U11G C12U,1.36
8,U7C U8G G9A U10G U11G C12G,1.27
9,U7C U8G G9C U11G C13G,1.03
10,U7C U8G G9C U11G C13A,1.18
11,U7C U8G G9C U11G C13U,1.15
12,U7C U8G G9C C12G,1.28
13,U7C U8G G9C C12U,1.11
14,U7C U8G G9C C12A,1.58
15,U7C U8G G9C C13U,1.04
16,U7C U8G G9C C13A,1.06
17,U7C U8G G9C C13G,1.04
18,U7C U8G G9C U10C C12G,1.08
19,U7C U8G G9C U10C C12A,1.07
20,U7C U8G G9C U10C C12U,1.27
21,U7C U8G G9C U10C U11G C13A,1.11

row,Variant,aptazyme ON/OFF ratio
1,U7C U8G G9C U10C U11G C13U,1.19
2,U7C U8G G9C U10C U11G C13G,1.11
3,U7C U8G G9C U10G C13A,1.25
4,U7C U8G G9C U10G C13U,1.47
5,U7C U8G G9C U10G C13G,1.2
6,U7C U8G G9C U11A C12G,1.16
7,U7C U8G G9C U11A C12U,1.28
8,U7C U8G G9C U11A C12A,1.22
9,U7C U8G G9C U10G U11A C12U C13A,1.38
10,U7C U8G G9C U10G U11A C12U C13G,1.27
11,U7C U8G G9C U10G U11A C12U C13U,1.27
12,U7C U8G G9U C12G,1.78
13,U7C U8G G9U C12U,1.97
14,U7C U8G G9U C12A,1.64
15,U7C U8G G9C U10A C12A,1.2
16,U7C U8G G9C U10A C12G,1.14
17,U7C U8G G9C U10A C12U,1.17
18,U7C U8G G9A U11A C12A C13A,1.3
19,U7C U8G G9A U11A C12A C13G,1.15
20,U7C U8G G9A U11A C12A C13U,1.24
21,U7C U8G G9C U10G C12A,1.21
